Experiment: soluble on expression in E. coli; label from the status in PepcDB or PDB records

Sequence | soluble on expression in E. coli
MYHNNNYGYNNHRGGGGFRHNNYNNNNNNHHHHYNNLPRINETQVPQSKHTIFIRGLHGDISTEEIKEYIGEKVGKISFDFVKVAQDKSKIFVAVRFENRDEAKEFMETYSDREFMGCRCDLSWFRDIRRYCAYQRAKQVRSNSQRRRRRSDSQESSKRSASPPVRRGRSKSRSRSRSPSRSRSRSRSRSVSRSKSPASRNGRVSRHRSRSQNRSRSRSNTRSRSRSSGRSGSAHSRKSDDVDSFDDESFDEKSRVKDNEARQKRRRELSDDDRKDVRETQPKKSVKEELPQIPLPPKTEAAASPSPAPPTPKASKSASFIPPPTADDMELESPPHVSNNQYEYQQSNNTYNQIRTGASPVSVSYSVPMEVEATPKMIVRETPQPAQPPVQVNSYYTTTPIQQQQQQQQPIPPQLPTACAPVCKYLTKIFRVETRYHIPRGANFHVCVIRFSPPQPPPTTPQPAFVPRQIGRIEIVMPSSLPAPVVSAAAASASAAAHPVAMNGSAISGGSSMPDITMHPNTNKLFGHLKAFQSALLSTVKYEPPARKEEDEAGFSTLRLSSLATEDDSADEEKAMVRELKLAKLNDEQMMRFHIKKKQLESAFRNDCETYAVVTRALLAKDESLQFGLKMALLENMEDLYKKMMQRVDDQLDALLVMA | not soluble
MYKHILVPVDLNEQGFADKAVQLAVWHAKHSNAEIHLLNVLPGIHMSMVATYFPKDAAAQMKNDVRAQLKAFAEKHIAEEVVYKLHIAEGKPYATILDYAERLGADLIVMPSHKRSRIDKVMLGSVASKVVENSPINVMVVKPQG | not soluble
MYKIGIDVGGTNTDAVILDHQLNLIHSVKVPTTDDIQTGIAGALNKVLAESAVDPTKVTHAMLGTTQCTNAIVERKKLAKVGVLRLGYPATASVLPYTAWPKDLVATLSETYALAHGGYEYDGQPLTALDEEELRGILASWRGEVEAIAVIGVFSSLKNDQELFVQALAKEVL | not soluble
MYKIVSDSACDLSKEYLEKHDVTIVPLSVSFDGETYYRDGVDITRDECYQRMVDDPKLFPKTSLPSVESYADVFRSFVEQGFPVVCFTITTLFSGSYNSAINAKSLVLEDYPDANICVIDSKQNTVTQALLIDQFVRMLEDGLSFEQAMSKLDALMASARIFFTVGSLDYLKMGGRIGKVATAATGKLGVKPVIIMKDGDIGLGGIGRNRNKLKNSVLQVAKKYLDENNKDNFIVSVGYGYDKEEGFEFMKEVESTLDVKLDSETNVAIGIVSAVHTGPYPIGLGVIRKYETL | soluble
MYLINQNGWIEVICGSMFSGKSEELIRRVRRTQFAKQHAIVFKPCIDNRYSEEDVVSHNGLKVKAVPVSASKDIFEHITEELDVIAIDEVQFFDGDIVEVVQVLANRGYRVIVAGLDQDFRGLPFGQVPQLMAIAEHVTKLQAVCSVCGSPASRTQRLIDGEPAAFDDPIILVGASESYEPRCRHCHAVPANKDK | not soluble
MYLTKEEEQILNGEAGETLRQAIQILVALGDIYGADRLIPIKSAQIAGVSYKTIGDAGLEWISDLEGQVKVPAILNPAGMDLEDWERLRISPEFAEKQKEIVQAYKKLGIRCECTCTPYTLEGFSVSYGDHLAWSESSAISYANSVIGARTNREGGPSALSAALLGKTANYGFHLDKNRVPEVSVSVECSLKESDYGALGYVAGKLIGNRVPIFQLRSKPEKDELKSLGAAMAASGAVALYHVKGVTPEACRMDFEEPEEKIIIERSQLDEVYESKGKEPELITIGCPHCSAAELKKAAELLKGKTVSKETWIFTSRELAERYPEYIRTIEESGAKVVCDTCMVVSPATNSYSCVMVNSGKAFAYVPGMCGAQSVYGNMEACINKATGGKERKAGDSHLEHHHHHH | not soluble
MYMAQPGHIDHIKQINAGRVYKLIDQKGPISRIDLSKESELAPASITKITRELIDAHLIHETTVQEAISRGRPAVGLQTNNLGWQFLSMRLGRGYLTIALHELGGEVLIDTKIDIHEIDQDDVLARLLFEIEEFFQTYAAQLDRVTSIAITLPGLVNSEQGIVLQMPHYNVKNLALGPEIYKATGLPVFVANDTRAWALAEKLFGHSQDVDNSVLISIHHGLGAGIVLDGRVLQGRHGNIGELGHIQIDPQGKRCHCGNYGCLETVASSQAIRDQVTARIQAGEPSCLATVEEISIEDICAAAADGDPLAVDVIQQLGRYLGAAIAIVINLFNPEKILIGGVINQAKSILYPSIEQCIREQSLPVYHQDLKLVESRFYKQATMPGAALIKQALYDGLLLMKVVEG | soluble
MYNVEIRRPNSDDLEELHSFFRIVITNTFKDEGLSQLSDDIENEINTKKQYLKNDFDSNGEKRYFLLAIDTNNDKIIGTIEVGPASTLINSCTGGVLKDLYEIGTVFILPEYQKKGIGSFLLHTMFLTLLSRGITEYCLDSGYKKAQSIWTKKFGEPSYVLKDYWGESSDHMIWKKSLYDTPIIFELMAGDPLEHHHHHH | soluble
MYPSDFASQLNVLSLKEMKEAIHHLLDIRDENTWMLFGTLPIYPCLNDEYDQHLLQRLRKSKNVTMRNDPDGRSRLNVNVFTGDVIVTDFGDENGTISNIQKDKLTDVFNQWLNTDLAQSLNCHCAEYQCLGPNVLVKNMYYPNTDFKKKEQIMHQHQIFS | not soluble
MYQDLIRNELNEAAETLANFLKDDANIHAIQRAAVLLADSFKAGGKVLSCGNGGSHCDAMHFAEELTGRYRENRPGYPAIAISDVSHISCVGNDFGFNDIFSRYVEAVGREGDVLLGISTSGNSANVIKAIAAAREKGMKVITLTGKDGGKMAGTADIEIRVPHFGYADRIQEIHIKVIHILIQLIEKEMVK | soluble
MYQKFKGGDLMIHGGDIYTEGVFKGRELLDYSSNINPLGIPKSFLNNIDEGIKNLGVYPDVNYRRLNKSIENYLKLKDIGIVLGNGASEIIELSISLFEKILIIVPSYAEYEINAKKHGVSVVFSYLDENMCIDYEDIISKIDDVDSVIIGNPNNPNGGLINKEKFIHVLKLAEEKKKTIIIDEAFIEFTGDPSSSFVGEIKNYSCLFIIRAMTKFFAMPGIRFGYGITNNKEIAAKIKAKQNPWNINCFAEMAAINCLKDTNYIEESLLWIKKERKRFIEELNKIGFIKRVFSPHANFVLCRLENISGEKLYDSLLKEDIVIRRCCNFIGLDDSFVRFAIKDEKKNTKFLRALKGVENNL | soluble
MYRAGAVLLRGATRTRLLAAASAHQSFATFSQRNQSILMMKSMELAGNSGERRFYSTHDDPIAVDDSLELYKDLGGMSPIQVPADMPNVPMLAINRYPLFPGFIKKVDIVKDDNLKALIRRQLSLKQPYAGVFVKRDDENKEETITSLSEVYPTGSFVQIIEVRDQGSVLELVLSAHRRIRALEPIDEITPKNETPLNGRRARGKRAASATSPLTPPPSPPPLAPSVASVAPEISATEEKEEKTTPPSATGEKQKKGIIMVRTENVVAEPVPKNNETKATMMAIVQTIRDVVQFNQLFGQQINLLLHPSQNVIDNPVYLCDLVATLVQSAETKDLQEMMDEIDVSKRLKIALLLIQKEKAVAKLKYDINKDVEKKVQDHHRKYLLNEQLKVIKKELGIEKDEKTTIIEKIDERIKTLAVPEYALKVINEEKTKLQFLDPHSSEFSVTRNYLEWLTSVPWGLTSPENRRLSVAKKALDEGHYGMKDVKERIMEFIAVNLLRKSIGGKILCFHGPPGVGKTSIAKSIATALNREYFRFSVGGMTDVAEIKGHRRTYVGAMPGKMIQCMKKVKTENPLVLIDEVDKIGGAGFHGDPASALLELLDPEQNANFNDHFLDVPVDLSRVLFICTANEISKIPGPLRDRMEMIDVSGYLAEEKVEIAHQHLIPQLRKDTSLATEQLKIEDSALEELIKHYCRESGVRNLQQHIERIFRKAALQIAEQQNEDEEPAEKATTAITENSEAEPITSTSSADCLKSSAEQIVVCTENLQKFVGRPKFTSDRMYEVTPPGVIMGLAWTAMGGSALYIETVLKRPVDLTNDKDGSIETTGNLGDVMKESVRTALTVAKGILAREQPDNKFFDKAHIHIHVPEGATPKDGPSAGVTLVSSLLSLALDRPVVQDMAMTGEISLTGKVLPVGGIREKVIAARRVGAKRVFLPNENRRDFDDLPEFMKSELDIRFVSHYDELYEHLFQ | not soluble
MYRGEPGTRAHQQEEHVVDSSPLEPSSSLEDTRVWGHVGVAAAPRLLAQALPKLRCKLPKPQAPLAGHEAQQPRGGLILPLALASELMESSTVQWLSYKQPQVVPVVPQLPRVLWQVQPLEKPGSQSFRNNQPSILLKTRLRFSITRISLFNYHR | soluble
MYRKEWQDPDRIVDQLPISPGFDIVDLGCGPGFFTLPLASRTDGKVYAVDASDEMIEILKERIDGHSNIIPVKARAENIPIPDGTVDLVFIANAFHDFDDRDAVLGEIYRILRDGGYLVDIDWKKDETTHGPPVDIRIDRKDALLLISSHNFDIVKEIEAGAHHYGLLFRKN | not soluble

From the DeepSol protein solubility set
